A short description of this series: yeast display, Sf9 membrane polyspecificity reagent, FACS + sequencing; frameworks hold sequencing errors. In a few lines: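 Synthetic nanobody libraries on Saccharomyces cerevisiae BJ5465 were galactose-induced for 36–48 hours, stained 1 hour at 4 °C with 10% biotinylated, detergent-solubilized Sf9 membrane reagent and enriched on streptavidin microbeads. FACS then separated cells into low and high (top ~1%) gates by anti-HA (expression) and streptavidin (reagent binding) fluorescence. Genes were colony-PCR amplified, MiSeq 2 × 250 sequenced and CDR-length filtered. A clone's polyreactivity label is that of its gate of origin.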
“QVQLVESRGGLVQAGGSLRLSCAASGITSPYAMGWYRQAPGKERELVAAISWSGSSTYYADSVKGRFTISRDNAKNTVYLQMNSLKPQDTAVYYCNTVGTRQPMDYWGQGTQVTVSS”: the “polyreactivity (PSR sort gate)” value is recorded as “high polyreactivity”.

Consider “QVQLVESRGGLVQAGGSLRLSCAASGLIFWFNTMGWYRQAPGTERELVAAITSGGGSTYYADSVKGRFTISRDIAKNTVYLQKNSLKPEDTAVYYCNAGAGRWRARQWHDYWGQGTQVTVSS”, for which the “polyreactivity (PSR sort gate)” value is “low polyreactivity”.

As to “QVQLVESRGGLVQAGGSLRLSCAASGRIFDVYAMVWYRQAPGKERELVAAITWSGTSTYYADSVKGRFTISRDNAKNTVYVQMNSLKPEDTAVYYCAAEVAYTDTEYFWYYYWGQGTQVTVSS”, the “polyreactivity (PSR sort gate)” value is recorded as “high polyreactivity”.

On to “QVQLVESRGGLVQAGGSLRLSCAASGRIFNVYAMGWYRQAPGKERELVAGISGSGGRTYYADSVKGRFTISRDNAKNTVYLQMNSLKPEDTAVYYCNTVRHYSSWGQGTQVTVSS”, for which the “polyreactivity (PSR sort gate)” value was “high polyreactivity”.

Take “QVQLVESRGGLVQAGGSLRLSCAASGRIFYVNAMGGYRQAPGKERELVAAIDVSGGRTYYADSVKGRFTISRDNAKNTVYLQMNSLKPEDTAVYYCAALKYRWTPYYPYDYWGQGTQVTVSS”: the “polyreactivity (PSR sort gate)” value is listed as “low polyreactivity”.

For “QVQLVESRGGLVQAGGSLRLSCAASGRTFAVYALGWYRQAPGKEWELVAAITLGASRTYYADSVKGRFTISRDNAKNTVYLQMNSLKPEDTAVYSCNAVGRRNVDSSLNDYWGQGTQVTVSS”, the “polyreactivity (PSR sort gate)” value is reported as “low polyreactivity”.

Turning to “QVQLVESRGGLVQAGGSLRLSCAASGRTFDGYVMGWYRQAPGKERELVAAISWGGSYTYYADSVKGRFTISRDNAKNTVYLQMNSLKPEDTAVYYCAKDTVPNVRDYWGQGTQVTVSS”, the “polyreactivity (PSR sort gate)” value was “low polyreactivity”.

Take “QVQLVESRGGLVQAGGSLRLSCAASGRTFGIYTMGWYRQAPGKERKLVAAISKRGSSTYYADSVKGRFTISRDNANNTVYLQMNSLKPEDTAVYYCAATRRYRYNWGQGSQVTVSS”: the “polyreactivity (PSR sort gate)” value was “high polyreactivity”.

For the sequence “QVQLVESRGGLVQAGGSLRLSCAASGRTFGRNTMGWYRQAPGKERELVAAISISGTSTYYADSVKGRFTISRDNAKNTVSLQMNSLKPEDTAVYDCAARYIRGSYGMGYWGQGTQVTVSS”, the “polyreactivity (PSR sort gate)” value is “high polyreactivity”.

Regarding “QVQLVESRGGLVQAGGSLRLSCAASGSIFYRNVMGWYTQAPRKEREWVAAISGRGGSTYYADSVKGRFTISRDNAKNTVYLQFTSLKPEDTAVYYCATELTYRHGYWGQGTQVTVSS”, the “polyreactivity (PSR sort gate)” value is “high polyreactivity”.

For the sequence “QVQLVESRGGLVQAGGSLRLSCAASGSTFGQYPMGSYRQEPGKERELVATITSPGSTNYADSVKGRFTISRDNAKNTVYFQMNSLKPEDSAVYYCNAVTGYWDGTEARQPYDYWGQGTQVTVSS”, the “polyreactivity (PSR sort gate)” value was “low polyreactivity”.

As for “QVQLVESRGGLVQAGGSLRLSCAASGSTFRTNTMGWSRQAPGKEREVVADISWSGGSTDYADSVKGRFTISRDNAKNTVYLQMNSLKPEDTAVYFCAKDGAFWTYYSWYDYWGQGTQVTVSS”, the “polyreactivity (PSR sort gate)” value is “low polyreactivity”.

On to “QVQLVESRGGLVQAGGSLRLSCAASGSTFTYNAMGWYRQAPGKERELVASINSGGSTYYADSVKGRFTISRDNAKNNFYLQMNSLKPEDTAVYYCAKDLHLDSYASDYWGQGTQVTVSS”, for which the “polyreactivity (PSR sort gate)” value is given as “low polyreactivity”.

For the sequence “QVQLVESRGGLVQAGGSLRLSCAASGSTRGSNAMGRYRQAPGKEMELVAAITWSGGTTYYADSVKGRFTISRDNAKNTVYLQMHSLKPEDTSVYYCATGQSVIYRYEYWGQGTQVTVSS”, the “polyreactivity (PSR sort gate)” value is listed as “low polyreactivity”.

Take “QVQLVESRGGLVQAGGSLRLSCAATGSIFNNYDMGWYRQAPGKERELVADISRGGDTNYADSVKGRFTISRDNAKYTVYLQMTSLNPVDTAVYYCNATYWILDSPWRRETFDYWRQGTQVTVSS”: the “polyreactivity (PSR sort gate)” value is recorded as “low polyreactivity”.

“QVQLVESRGGLVQAGGSLRLSCPASGFTFVNYAMGWYRQAPGKERELVAAIRRSGSRTYYADSVKGRFTISRDNAKNTVYLQMNSLKPEVTAVYYCNAPVVYFWPLNFDYWGQGTQVTVSS”: the “polyreactivity (PSR sort gate)” value was “low polyreactivity”.

On to “QVQLVESRGGLVQAGGSLRLSCPDSGSNLLSYAMGWYRQAPGKERELVAAITTRDGSTYYADSVKGRFTISRDNAKYTVYLQMTSLKPEDTAVYYCNVDARSSYDYWGQGTQVTVSS”, for which the “polyreactivity (PSR sort gate)” value is “low polyreactivity”.

With “QVQLVESRGGLVQAGGSLRLSFAASGIIFADYAMGWYRQAPGKERELVAAISSGDSTYYADSVKGRFTISRDNAKNTVYLQMNSLKPEDTAVYYCAARLYRNKYRIAKMNYWGQGTQVTVSS”, the “polyreactivity (PSR sort gate)” value is “high polyreactivity”.

Turning to “QVQLVESRGGLVQAGGSLRLSSAASGFTFHGNAMRWYRQAPGKERQLVAGISSSGASTYYADSVKGRFTISRDNAKNTVYLQMNILKPEDTAVYYCAVRYYGRYLRYNYCGQGTQVTVSS”, the “polyreactivity (PSR sort gate)” value is given as “high polyreactivity”.

Regarding “QVQLVESRGGLVQAGGSLRLSSAASGFTFRYYLMGWYRQAPRKERELVAAITWSGGTTNYADSVKGRFTISRDNAKNSVYLQMNSLKPEDTAVYYCNAARSRGANRVPPYRLYYWGQGTQVTVSS”, the “polyreactivity (PSR sort gate)” value is reported as “low polyreactivity”.

As for “QVQLVESRGGLVQAGGSLRLSSAASGITFGRNPMGWYRQAPGKERELVAAIESGGNTYADSVKGRFTISRDNAKNTVYLQMNSLKPEDTAVYYCAVDGGEFSSYGYWGQGTQVTVSS”, the “polyreactivity (PSR sort gate)” value is “low polyreactivity”.

In the case of “QVQLVESRGGLVQAGGSLRLTCAASGSTFAPNTMGWYRQAPGQERELVARITSSDGSTTYADSVKGRFTISRDNAKTTVYLQMNSLKPEHTAVYYCAADYGRRWGYDYWGQGTQVTVSS”, the “polyreactivity (PSR sort gate)” value is “low polyreactivity”.

On to “QVQLVESRGGLVQAGRSLRLSCAASGRTFHRNTLGRYRQAPGKERELVAAITGDGRTNYADSVKGRFTISRDNAKNTVYLLMNSLKPEDTAGYYCAAQYYYSEAGRDYWGQGTQVTVSS”, for which the “polyreactivity (PSR sort gate)” value is “low polyreactivity”.

“QVQLVESRGRLLQAGGSLRLSCAASGRISHINAMGCSIQAPGKERELVAGIRGRGGSTYYADSVKGRFTISRDNAKNSVYLQMNSLKPEDTEVYYCAARGWELIRTDPFDYWGQGSQVTVSS”: the “polyreactivity (PSR sort gate)” value is “high polyreactivity”.

With “QVQLVESRGVLDQARGSLRLSCAATGSIFKPYAMGWYRQEPGKEMELVAAISGIGGSTYYADSVKGRFTIARDNAKNTVYLQMNSLKPEVTAVYYCAALTGFYNLRPYGYWGQGTQVTVSS”, the “polyreactivity (PSR sort gate)” value is given as “high polyreactivity”.

“QVQLVESRGVLVQAGGSIRLSCAASGFSIDYYAMGWYRPAPGKERELVAAITTSGGRTYYADSVKGRFTIARDYAKNTVYLQMNSLKPEDTAVYYCAVVTWIYGTRFNYWGQGTQVTVSS”: the “polyreactivity (PSR sort gate)” value is on record as “high polyreactivity”.

With “QVQLVESRVGLVKAGGSLRLSCAASGITLYWYAMGWYRQAPGKESELVAAISRRGGTTYYSDSVKGRFTISRDNAKNTVYLQMNILKPEDTAVYYCAKAPDTQTSWSRQEGNYWGQGSQVTVSS”, the “polyreactivity (PSR sort gate)” value is “low polyreactivity”.

“QVQLVESSGGLVQAGGSLRLSCAASGSIFLYNAMGWYRKAPGTEREMVAAISKSGGSTYYADSVKGRFTISRDNAKYTVYLQMNSLKPEDTAVYYCAAGYGRRIRYGCEYDYWGQGTQVTVSS”: the “polyreactivity (PSR sort gate)” value is “low polyreactivity”.

With “QVQLVESVGALVQARGSLRLSCAASGFTFRPYAMGWYRQAPGKERELVAAITRSGGSTYYADSVKGRFTISRDTAKNTVYLQMNSLKPEDTAVYYCAARFARSEYDYWGQGTQVTVSS”, the “polyreactivity (PSR sort gate)” value is “high polyreactivity”.

Turning to “QVQLVESVGCLVQAGGSLRLSCAASGRTVVYGYAMGWYRQDPGKERELVAAITSGGSTNYADSVKGRFTISRDNAKNTVYLQMNSLNPEDSAVYYCNAGTVLISTYDYWGQGTQVTVSS”, the “polyreactivity (PSR sort gate)” value is reported as “high polyreactivity”.

On to “QVQLVESVGGFVQAGGSLRLSCAASGRIFGTYAMGWYRQAPGKERELVAAITRGGTTYYADSVKRRFTISRDNAKNTVYLQMNSLKPEDTAVYDCATGPAIRYDYWGQGTQVTVSS”, for which the “polyreactivity (PSR sort gate)” value was “low polyreactivity”.

Take “QVQLVESVGGIVQAGGSLRLSCDASGRTFGRSAMGSYRQAPGKERELVAGISRAGDSTHYAESVKGRCTISRDNAKNTVYLQMNSLKPEDTAVYYCNKETPTIGARKYEYWGQGTQVTVSS”: the “polyreactivity (PSR sort gate)” value is reported as “low polyreactivity”.

Consider “QVQLVESVGGIVQAGGSLRLTCAASGSIIKRNAMGWYRQAPGKERELVATISSGDGSTRYADSVKGRFTISRDNAKNTVYLQMNSLKPEDTAVYYCARDFTYTYYRWKTPYRIGHDYWGQGTQVTVSS”, for which the “polyreactivity (PSR sort gate)” value is reported as “low polyreactivity”.

For the sequence “QVQLVESVGGLDQAGGSLRLSCAASGFILSWYAMGWYRQAPGKERELVAGISRRGGSTYYADSVTGRFTISRDNAKNTVYLQMNSLKPEDTAVYYCNALYDEWSVSTGDYWGQGTQVTVSS”, the “polyreactivity (PSR sort gate)” value was “high polyreactivity”.

For the sequence “QVQLVESVGGLDQAGGSLRLSCAASVFTFNIYVMGWYRQAPGKERELVAAISTSTGSTYYADSVKGRFTISRDNAKNTVYLQMNSLKPQDTAVYYCNADDYDLRFDYWGQGTQVTVSS”, the “polyreactivity (PSR sort gate)” value is on record as “low polyreactivity”.

On to “QVQLVESVGGLDQAGGTLRLSCAASALIFAYYAMGGYRQAPGKERELVAAITSSGTSTYYADSVKGRFTISRDNAKNTVYLQMNSLTPEDTAVYYCAASDRRLTGVGADEYWGQGTQVTVSS”, for which the “polyreactivity (PSR sort gate)” value is “high polyreactivity”.

Consider “QVQLVESVGGLGQAGGSLRLSCAASGSIFVLNARGWSRQAPGKERELVAGITYSGGSTYYADSVKGRFTISRDNATNTVYLQMNSLKPEDTAVYSCAAPVRRYPYPGRFYYWGQGTQVTVSS”, for which the “polyreactivity (PSR sort gate)” value was “low polyreactivity”.

In the case of “QVQLVESVGGLGQARVRLRLSCAASGITFYRYAMGWYRQAPGKERELVAAITSRGTSTYYADSVKGRFTISRDNAKNTVYLQMNSLKPEDTAVYYCAAVLFVGDGGYDYWGQGTQVTVSS”, the “polyreactivity (PSR sort gate)” value is reported as “high polyreactivity”.

On to “QVQLVESVGGLVLAGASLRLSCAASGSTYAPNAMGWYRQAPGKERELVAVITSGDSTYYAVSVKGRFTISRDNAKNTVYLQMNSLKPEDTAVYYCASETYGTPGYYYWGQGTQVTVSS”, for which the “polyreactivity (PSR sort gate)” value was “low polyreactivity”.

As to “QVQLVESVGGLVQAGCILRLSCAPSGRIFGVNAMGWYRQAPGKVRELVAAIDWSDGSTYYADSVKGRFTISRDNAKNTVYLQMNSLKPEDTAVYYCAALPSYLAAQYGDDYWGQGTQVTVSS”, the “polyreactivity (PSR sort gate)” value was “low polyreactivity”.

Consider “QVQLVESVGGLVQAGCSLRLSCGASGRIFPWYAMGWYRPAPGKERELVAAIRWRGGGTYYADSVKGRFTISRDNAKNTVYLQMNSLKPEDTAVYYCSARRPAKGMGYWGQGTQVTVSS”, for which the “polyreactivity (PSR sort gate)” value was “high polyreactivity”.

Values taken from the nanobody polyreactivity screen of Harvey et al. (2022).
